The assay concerns the target CD19 on B cells and plasma cells in PBMCs (human) (UniProt P15391). The assay can be described thus: cell-based or functional assay.

Chain of CD19 on B cells and plasma cells in PBMCs (human) (P15391 20-556): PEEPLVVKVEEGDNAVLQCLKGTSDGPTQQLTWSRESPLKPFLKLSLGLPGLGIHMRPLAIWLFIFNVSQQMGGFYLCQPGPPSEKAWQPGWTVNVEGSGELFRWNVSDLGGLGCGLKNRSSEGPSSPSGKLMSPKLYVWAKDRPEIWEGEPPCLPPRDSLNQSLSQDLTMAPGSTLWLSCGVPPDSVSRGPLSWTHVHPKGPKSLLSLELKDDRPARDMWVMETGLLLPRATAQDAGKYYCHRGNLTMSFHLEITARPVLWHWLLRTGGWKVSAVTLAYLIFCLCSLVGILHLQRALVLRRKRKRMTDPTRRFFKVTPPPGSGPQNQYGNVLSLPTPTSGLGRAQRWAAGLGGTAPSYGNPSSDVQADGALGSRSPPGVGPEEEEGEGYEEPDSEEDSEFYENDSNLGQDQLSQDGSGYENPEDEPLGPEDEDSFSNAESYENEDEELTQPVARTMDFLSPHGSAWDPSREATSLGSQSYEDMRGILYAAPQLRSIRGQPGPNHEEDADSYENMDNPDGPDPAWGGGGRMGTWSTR

Regarding “CD19-CD3 scFv (InvivoGen, Cat number Bimab-cd19cd3-01)”, the EC50 (nM), cytotoxicity against IgA^+ CD20^+ B cells by flow cytometry was 0.00325 nM; the EC50 (nM), reduction in secreted IgA in human PBMC supernatants turned out to be 0.0368 nM; the Top (MFI) as printed, cytotoxicity against IgA^+ CD20^+ B cells by flow cytometry turned out to be 92.8; the reduction of secreted IgA in PBMC supernatants (IgA ELISA) is 57%.
